This note sets out measurements from article PMC10912509.

The assay has as its target ITPKB (UniProt P27987). Nature of the assay: co-immunoprecipitation, immunoblot. The settings on record: reference: wild-type Trim25; sites S100.

Take “Trim25 (from UniProt Q14258) Trim25 S100A”: the “binding against the reference” value is given as “weaker”.
